Earlier results, collected in paper PMC7568816 (Gastroenterology Research and Practice, 2020).

Conditions: due to proteolytic cleavage by dipeptidyl peptidase IV; ref [15]
Experimental: Endogenous GLP-2 is composed of 33 amino acids and has a short half-life of about 7 minutes due to proteolytic cleavage by dipeptidyl peptidase IV [15]. Chemical substitution of the amino acid alanine to […] at position 2 extends the half-life of GLP-2, and this molecule (teduglutide) is approved for the treatment of short bowel syndrome.

Substance: Endogenous GLP-2: enteroendocrine hormone composed of 33 amino acids
- half-life: about 7 minutes
